Data as given in US20220010310A1, “An lncRNA integrates a DNA-PK-mediated DNA damage response and vascular senescence” (The Brigham and Women`s Hospital, Inc., priority 2018, published 2022).

Target: purified DNA-PK protein (Homo sapiens, UniProt P78527)
Assay: DNA-PK kinase activity, ATP to ADP conversion (luminescence)
Assay type: biochemical
Details: 10 pmol transcript, ATP 150 μM
Excerpt: FIGS. 9A-I. Identification of DNA-PK as an SNHG12 interactor. (A) Illustration of lncRNA pulldown using nuclear protein extract from HUVECs for in vitro transcribed biotin-labeled SNHG12 or negative control LacZ followed by streptavidin beads pulldown. Protein eluate was sent for MS. (B) Protein hits for SNHG12 (n=2, two technical replicates each). (C) LncRNA pulldown of biotin-labeled SNHG12 compared to negative controls LacZ and antisense transcript for SNHG12 (n=3). (D) RT-qPCR analysis for intravenous delivery of biotinylated SNHG12 to the aorta (n=4 per group). P value was determined by Student's t test. […] P value was determined by Student's t test. (H) Purified DNA-PK protein was incubated with in vitro transcribed LacZ or SNHG12 transcript (10 pmol) together with ATP (150 μM) and luminescence was measured for detecting conversion to ADP. […] P value was determined by Student's t test. (I) DNA-PK protein was incubated for 1 hr with the DNA-PK kinase inhibitor NU7441 (1, 10, 100 μM) to assess DNA-PK kinase activity by luminescence (n=1). […]
To identify the functional consequences of the interaction of SNHG12 with DNA-PK, we assessed the effect of SNHG12 on DNA-PK's kinase activity (DNA-PKcs). Incubation of purified DNA-PK protein with in vitro transcribed SNHG12 assessed the ability of DNA-PKcs to convert ATP to ADP. […]

B1: SNHG12: T7 in vitro transcribed SNHG12 lncRNA transcript used in MST and DNA-PK kinase assays (nucleic acid, listed as Homo sapiens)
chain: TCTAGAGCTAGCGAATTCCTTTCTCCCCGCCGCATTCCCGGTGTCGACTTACTAGCTGCAAGCCTCTGCCTGCCTTCCTGCGCGCCGTTCCCCGCTAGTCGCTGCTGCTGGCGCGCACTCGCCGGGTTTTTCCTCCCACGGCCTCGAGATGGTGGTGAATGTGGCACGGAGGAGCCGGGCCTTCCAACCCGGTGGGCCCGAGCTCCGAAAGGCCCCCTCGGCAGTGAGAGGGGCGGGAGCCCGCGGGGGCCGCGCCCTTCTCTCGCTTCGGACTGCGCAACGCTGCGCTCTGGGCTGACAGGCGGATAAAACGGTCCCATCAAGACTGAGAAAAAGCACACCAGCTATTGGCACAGCGTGGGCAGTGGGGCCTACAGGATGACTGACTTAGTCTACAGAGATCCCGGCGTACTTAAGCAGATGAAGACTCTTAAGATGACAGAAGGTGATTTTTCTGGTGATCGAGGACTTCCGGGGTAATGACAGTGATGAAATGCAGGGGACCTGGTTGCCCCCAAGTTTCCTGGCAGTGTGTGATACTGAGGAGGTGAGCTTGTTTCTGGAGCTGTGCTTTAAGGTAAAGTTGATCAGCTTAATCCTCCTGATCCCTTTCCCATCGGATCTGAACACTGGTCTTGGTGGTCGTAAAAGGAGGAAAAGTAATAGTGAAGCTGGCCTAAATGTTGTAATCTGGTATATGGCATGTGGGCTAGTTTCAGACAGGTTTCAGAGATGGTTGGATCTCTGAAATTGTAAAATGAAGTATAATCTTAGGCTAAGGGAAGGATGCGTGTGAAGCTCTGGAGGTTGGTATAGTAATAGCTGACCTATTACTGCATTTGGGAGGGATCTGTCATAGCTTCCTTGCCTCTTAATTAAGGGTGGTGTTTTTTTCTTTTAGATTCATGTTACATGTAAAGCTGTCCTCATTTGTGACTATGGACCTATGGAGTTGGGACAATCTCTATGGGAAGCAGAAGGCAAGGACCCCGGTCATTTTAGGTAGAAACAACAGCATGCTAATGCAAAAAATTATGCAGTGTGCTACTGAACTTCAGAGGTGATCAATAAAAGAAGAATAAAAAGACTAATAAAAGTAGAATTCTGATCAGGATCC
For B1, the “increase of DNA-PKcs kinase activity compared to the LacZ control” value was 2 fold.
